Source: article PMC5366859

Tested on: MBP-rAtCHE (Arabidopsis thaliana (homoeolog cloned from resynthesized A. thaliana x A. arenosa allotetraploid))
Experiment: EMSA
Details: reference for normalization; 25 mM HEPES pH 7.5, 2.5 mM DTT, 75 mM KCl, 10% glycerol, 1.25 ng poly-dIdC, 10 nM (~15 fmol) DNA, on ice 20 min; 5% native PAGE

Substance AtCCA1p has a binding signal (fold (reference for rAaCHE)) of 1.
